These results are taken from paper PMC9978964.

pKd: −log10 of the molar value.

Holding throughout (experiment): BLI
Experiment [1] concerns the target biotinylated FXR NLS peptide (amino acids 191–230), K217 acetylated (human).
Experiment [2] has as its target biotinylated FXR NLS peptide (amino acids 191–230), K217 non-acetylated (human).
In experiment [3] the target is biotinylated FXR NES peptide (amino acids 401–454), T442 non-phosphorylated (human).
For experiment [4], the target named is biotinylated FXR NES peptide (amino acids 401–454), T442 phosphorylated (human).

Turning to “KPNA3 protein used in the BLI assay (from UniProt O00505 1-521) (natural protein)”, the pKd – broadly, the negative decadic logarithm of the Kd, by convention in mol/L – in experiment [1] was 7.29; in experiment [2], 7.76.
On to “CRM1 protein used in the BLI assay (from UniProt O14980 1-1071) (natural protein)”, for which the pKd is 7.05 in experiment [3] and 6.74 in experiment [4].
